The source of these data is PMC7338525, “Insights into the structure and function of Est3 from the Hansenula polymorpha telomerase”.

The target in the series is T1, HpEst3 (Hansenula polymorpha, UniProt W1QJK4 1-175).
T1 sequence: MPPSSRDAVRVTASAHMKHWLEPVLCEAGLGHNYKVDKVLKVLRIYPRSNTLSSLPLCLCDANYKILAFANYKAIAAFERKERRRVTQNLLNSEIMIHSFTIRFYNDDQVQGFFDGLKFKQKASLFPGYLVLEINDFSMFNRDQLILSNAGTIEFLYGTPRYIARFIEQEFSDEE
As to the kind of experiment: NMR titration (15N-HpEst3); Est3:DNA up to 1:5; non-specific binding, signal broadening without shift changes; NMR: 100 mM KCl, 20 mM potassium phosphate pH 6.5, 0.02% NaN3, 3 mM DTT, 25 C; EMSA: 20 mM potassium phosphate pH 6.5, 100 mM KCl, 3 mM DTT, 8% native PAGE. To be noted: protein: recombinant. In general terms: A gel shift assay detects complexes by their altered migration in electrophoresis.

GGGTGGCGGGGTGGCGGGGTGGCGGGGTGGCG (ssDNA) [ssDNA G4 (four telomeric repeats)]: the binding result is on record as “binds”.
